Reference: the nanobody polyreactivity screen of Harvey et al. (2022)

Test: yeast display, Sf9 membrane polyspecificity reagent, FACS + sequencing; frameworks hold sequencing errors
Method in brief: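 Using colony PCR, genes from sorted yeast display clones were amplified, then sequenced on MiSeq at 2 × 250 and filtered by CDR length. The clones had been stained with 10% biotinylated, detergent-solubilized Sf9 membrane reagent for 1 hour at 4 °C and sorted by FACS into low and high (top ~1%) gates on anti-HA and streptavidin fluorescence. Polyreactivity labels come from the gate of origin.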

Sequence	polyreactivity (PSR sort gate)
QVQLVESGGGLVQSGGSLRLSCAASGSIFDFYAMGWHRQAPGKERELVATITASGGSTYYADSVKGRFTISRDNAKITVYLQMNSLKPVDTAVYYCNADSVYWGQGTQVTVSS	low polyreactivity
QVQLVESGGGLVQAGGSLRLSCAASGSIFFYYTMGWYRQAPGKERELVAAISVGGSTYYADSVKGRFTISRDNAKNTVYLQMNSLKPEDTAVYYCNAVPAKGYVTVVRYYYWGQGTQVTVSS	low polyreactivity
QVQLVESGGGLVQAGGSLRLSCAASGITFASNTMGWYRQAPGKERELVAAITRGDNTYYADSVKGRFTISRDNAKNTVYLQMNSLKPEDTSVYYCATEGYQIQYEHDYWGQGTQVTVSS	low polyreactivity
QVQLVESGGGLVQAGGSLRLSCAASGYTFRYYGMGWYRQAPGKERELVADINSNGVRTYYADSVKGRFTISRDNAKNTVYLQMNSLKPEDTAVYYCNKDWGRYRYDYWGQGTQVNVSS	high polyreactivity
QVQLVESGGGLVQAGGSLRLSCAASGSTFPLYAMGWYRQAPGKERELVAAISSSGGSTYYADSVKGRFTISRDNAKNTVYLQMNNLKPEDTAVYYCAAAPTSYSGYGYWGQGTQVTVSS	low polyreactivity
QVQLVESGGGLVQAGGSLRLSCAASGRIFTRNAMRWYRQAPGKEREFVAAISHSGGSTYADSVKGRFTISRDNAKNTVFLQMNSLKPEDTAVFYCAAEWSSLNFDYWGQGTQVTVSS	low polyreactivity
QVQHVESGGGLVQAGGSLRLSCAASGRIFTFYTMGWYRQAPGKERELVAAINSGGSTYYADSVKGRFTISRDNAKNTVYLQMNSLIQEDTAVYYCNARVYPLWFRRGYDYWGQGTQVTVSS	high polyreactivity
QVQRVESGGGLVQEAGSLRLSCAASGSILGINVMGWYRHDHGKQRDLVAAISRSGGTTYYADSVKGRFTISRDNGKNTVYLQMNSLKPEDTAVYSCAVYNRPYKEYGYNYCGQGTQVTVSS	high polyreactivity
QVQLVESGGGLVQAGGSLRLSCAASGSSFGTYAMGWYRQAPGKERELVAAISSSVGSTYYADSVKGRFTISRDNATNTVYLQMNSLKPEDTAVYYCAVEQEDFWYPYLYDYWGQGTQVTVSS	high polyreactivity
QVQLLESGAGLVQAGGSLRLIWAASGIIIGHYGMGWYRQAPGKERELVAVISSSGGRTYYADSVKGRFTISRDNAKNTVYLQMNSLKPEDTAVYYCNGGPQVRYWQGTYEYWGQGTQVTVSS	high polyreactivity
QVQLVESGGGLVQAGGSLRLSCAASGRIFYAYAMGWYRQAPGKERELVATITYGGGSTYYADSVKGRFTISRDNAKNTVDLQMNSLKPEATAVYYCAADRTGSTLYTIRYYYWGQGTQVTVSS	low polyreactivity
QVQLVESGGGLVQAGGSLRLSCAASGRIFYGNAMGWYRQAPGKERQLVAAITDGGSTNYADSVKGRFTISRDNAKNTVYLQMNSLKPEDTAVYYCAKDYRGSYYKYDYWGQGTQVTVSS	low polyreactivity
QVQLVESGGGLVQAGGSLRLSCAASGRTIPAYTMGWYRQAPGKERELVAAINWSGGSTYYADSVKARFTISRDNAKNCVYLQMISLNPEDTAVYYCARTSRYYGFRSYGTLDYWGQGTQVTVSS	high polyreactivity
QVQLVESGGGLVQAGGSLRLSCAASGSIFYTNDMGWYRQAPGKERELVAAIRYSGVSTYYADSVKGRFTISRDNAKNTVYLQMNSLKPEDTAVYYCATTAYGYRSYSQSQQDMEYWGQGTQVTVSS	high polyreactivity
QVQLQESAAGLVQAGGGLRLSCPASGTISGPHVMGWYRQSPGKEREFVAAINVGANTYYADNVKGRFTISRDNAKNTVYLQMNSLKPEDTGVYYCAAVYYGDIGHEYWGQGTQVTVSC	low polyreactivity
QVQLVETGGGLVQARGSLRLSCAASVRIFYYNAMGWYRQSPGKERELVAAITRSGSTNYAESVKGRFTISRDNAKNTVYLKMNSLKPEDTAVYYCAADSLKRYDYWGQGTQVTVSS	low polyreactivity
QGQLGESGGGLVQAGGSLRLSCAASGIIFTWYVMGWYRQAPGKERELVAAISASGASTYYADSVKGRFTISRDNAKNTVYLQMHSLNPEDPAVNYCNRYPTDGRTSYVTYYYWGQGTQVTVSS	high polyreactivity
QVQLVESGGGLVQAGGSLRLSCAASGSIFHDNAMGWYRQAPGKERELVAAITTSGGNTYYADSVKGRFTISRDNAKNTVYLQMNSLKPEDTAVYYCAADTLGKYDYWGQGTQVTVSS	low polyreactivity
QVQLVESGGGLVQAGGSLRLSCAASGRIFRYNAMGWYRQAPGKERELVATIRWGGGGTYYADSVKGRFTISRDNAKNSVYLLMNSLKPEDTAVYYCNAKRYSPGYNYWGQGTQVTVSS	high polyreactivity
QVQLVESGGGLVQAGGSLRLSCAASARIQDKYARGWYRQAPGKERELVARIRFSGGDTYADSVKGRFTISRDNAKNTVYLQMNSLKPEDTAVYYCNKDRRNRWYAFDYWGQGTQVTVSS	low polyreactivity
QVQLVESGGGLVQAGGSLRLSCAASGSTLSSNAMGWYRQAPGKVWELVAAISYRGGSTYYADSVKGRFTISRDNAKNTVYLQMNSLKPEDTAVYYCAAYLGPYVRYYYWGQGTQVTVSS	high polyreactivity
QVQLVESGGGLVQAGGSLRLSCAASGSIFEGYVMGWYRQAPGKERELVATISFSGGSTYYADSVKGRFTISRDNAKNTVYLQMNSLKPEDTAVYYCATSRYFNTGRGYWGQGTQVTVSS	low polyreactivity

Sequence	polyreactivity (PSR sort gate)
QVQLVESGGGLVQAGGSLRLSCAASGNIFDVYAMGWYRQAPGKERELVAAISRSGSSTYYADSVKGRFTISRDNAKNTVYLQMNSLKQEDTAVYYCAAKISLGQRTYYYWGQGTQVTVSS	high polyreactivity
QVQLVESGGGLVQARGSLRLSCAASVGILNWYALGWYRLAPVKEWELVAAISWSGGSTYYADSVKGRFTISRDNAKNTVYLHFNSLKPEVTAVYYCAAHSRGRFSRTYGYWGDGTQVTVSS	high polyreactivity
QVQLVESGGGLVQAGGSLRLSCAASGSTFSDYAMGWYRQAPGKERELVAAISGGGTTDYADSVKGRFTISRDNAKNTVYLQMNSLKPEDTAVYYCNKPVEGSFLPYSYLRFDYWGQGTHVTVSS	low polyreactivity
QVQLVESGGGLVQEGGSLRLICAASGSTFKAYAMGWYRQAPGKERELVAAITNSDGDTYYADSVKGRFTISRDNAKNTVYLQMNSLKPEDRAVYYCNADDALRQTPDYNYWGQGTQVTVSS	low polyreactivity
QVQLVESGGGLVQAGGSLRLSCAASGSIFGYNTMGWYRQAPGKERELVAAISYSGGRTYYADSVKGRFTISRDNAKNTVYVQMNSLKPEDTAVYYCAADFYFRRGTDYDYWGQGTQVTVSS	high polyreactivity
QVQLVESGGGLDQAGGSLRLSCAASGSTSPYYTMGWYRQAPGKERELVASINESGGSTYYADSVKGRFTISRDNAKNTVYLLMNSLKPEDTAVYYCNAEYTTPSYPVYRIDYYWFDYWGQGTQVTVSS	low polyreactivity
QVQLVESGGGLVQAGGSLRLSCAASGLILDGYAMGWYRQAPGKERELVAAITRSGGRTYYADSVKGRFTISRDNAKNTVYLQMNSLKPEDTAVYYCAALGWSGRYSYDYWGQGTQVTVSS	high polyreactivity
QVQLVESGGGLVQAGGSLRLSCAASGSTFAYYTMGWYRQAPGKERELVAAISKSGGSTTYADSVKGRFTISRDNAKNTVYLQMNSLKPEETAVYYCAAARKYYGYNYWGQGTQVTVSS	high polyreactivity
QVQLVESGGGLVQAGGSLRLSCAASGRTFYWNAMGWYRQAPGKERELVAAITRNGGSTYYADSVKGRFTISRDNAKNTVYLQMNSLKPEDTAVYYCAARKRYGAGYDYWGQGTQVTVSS	high polyreactivity
QVQLVESGGGLVQAGGSLRLSCAASGLIFLPYAMGWYRQAPGKERELVAAIRWSDDSTYYADSVKGRFTILRDNAKNTVYLQMNSLKPEDTAVYYCNAYVYRPSYIYNYYYEYDYWGQGTQVTVSS	high polyreactivity
QVQLVESGGGLVQAGGSLRLSCAASGRTFYKYAMGWYIQAPGKERELVAAISSRGGRTYYADSVKGRFTISRDNAKNTVYLQMNSLKPEDTAVYYCAADYAVEWWGNWYEYWGQGTQVTVSS	high polyreactivity
QVQLVESGGGLVQAGGSLRLICAASGRIFKLYAMGWYRQAPGKERELVASINSGGGSTNYADSVKGRFTISRDNAKNTVYLQMNSLKPEDPAVYYCAKCYRRVYGPFFYWGQGTQVTVSS	low polyreactivity
QVQLVESGGGLVQAGGSLRLSSAASGRTFAWNAMGWYRQAPGKERELVAAISYNGGRTYYADSVKGRFTISRDNAKNTVYLQMNSLKPEDTAVYYCAAQRYGYWGQGTQVTVSS	high polyreactivity
QVQLVESGGGLVQAGRSLRLSCAASGFTFGYYAMGWYRQAPGKERELVASISITAGSTYYADSVKGRFTISRDNAKNTVYLQMNSLTPEDTAVYYCAAKRRTRQSYYTEYYWGQGTQVTVSS	high polyreactivity
QVQLVESGGGFVQAGGSLRLSCAASGFTFWRYTMGWYRQAPGKERELVAAINWSGGRTYYADSVKARFTISRDNAKNTVYLQMNSLTPEDTAVYYCATGYSTSVGGSQGDSWGQGTQVTVSS	high polyreactivity
QVQLVESGGGLVQAGGSLRLSCAAAGIIFTGYAMGWYRQAPGKERELVAAITASGGRTYYADSVKGRYTISRDNAKNTVYLQMNSLKPEDTAVYYCNAVPTVLRVLKYDYWGQGTQVTVSS	high polyreactivity
QDQLVESGGGLVQAGGSLRLTCAASGRTFTHYAMGWYRQAPVKERELVAAISRSGGTTYYADSVKGRFTISLDNAKNTVYLQMNSRKPEDTAVYYCAARWWYRYNYDYWGQGTHVTVSS	high polyreactivity
QVQLVESGGGLVQAGGSLRLSCAASGSIIYYYAMGWYRQAPGKERELVAAISASGGRTYYADSVKGRFTISRDNAKNTVYLQMNSLKPEDTAVYYCAKRGTLGSYYYWGQGTQVTVSS	high polyreactivity
QVQLVESGGGLDQAGGSLRLSCAASGSIFPPYAMGWYSQAPGKERELVATITIRGGSTYYADSVKGRFTISRDNAKNTVYLQMNSLKPEDTAVYYCAADYTKYYRRYYYWGQGTQVTVSS	high polyreactivity
QFQLVESVGGLVQAGGSLRLSCAASGRTFVDYDMGCYRPAPGKERELVAAIRRGGSTTYEDSVKGRFTISRDNAKNTVYLQMNSLKPEDTAVYYCATDNTYGSDYWGQGTQVTVSW	high polyreactivity
QDQLVESRGGIVQAVRSLRLSSAASGSTYRNYAMGWYRQAPGKERELVAAISGSGGRTNYADSVKGRFTISRDNAKNTVYLQMNSLKQEDTAVYYCNARFPDWALSEISNSTTYGYWGQGTQVNVSS	low polyreactivity
